Columns and labels:
[1] = target: T1, hSIRPα domain 1 displayed on U2OS cells (Homo sapiens, UniProt P78324); assay: immunostaining of cells or tissue; live-cell immunofluorescence on U2OS cells expressing the target; unlabeled Nbs (1 nM to 100 nM) with Cy5-labeled anti-VHH, 1 h at 37°C; details: one partner purified
T1 construct: signal-regulatory protein α (SIRPα), human, domain 1; also called hSIRPαD1; D1; source: U2OS, transiently expressing, on live cells

[2] = target: T2, hSIRPα domain 3 displayed on U2OS cells (Homo sapiens, UniProt P78324); assay: as above; details: one partner purified
T2 construct: signal-regulatory protein α (SIRPα), human, domain 3; also called hSIRPαD3; D3; source: U2OS, transiently expressing, on live cells
T2 sequence (P78324 whole entry, looked up, tested part not stated): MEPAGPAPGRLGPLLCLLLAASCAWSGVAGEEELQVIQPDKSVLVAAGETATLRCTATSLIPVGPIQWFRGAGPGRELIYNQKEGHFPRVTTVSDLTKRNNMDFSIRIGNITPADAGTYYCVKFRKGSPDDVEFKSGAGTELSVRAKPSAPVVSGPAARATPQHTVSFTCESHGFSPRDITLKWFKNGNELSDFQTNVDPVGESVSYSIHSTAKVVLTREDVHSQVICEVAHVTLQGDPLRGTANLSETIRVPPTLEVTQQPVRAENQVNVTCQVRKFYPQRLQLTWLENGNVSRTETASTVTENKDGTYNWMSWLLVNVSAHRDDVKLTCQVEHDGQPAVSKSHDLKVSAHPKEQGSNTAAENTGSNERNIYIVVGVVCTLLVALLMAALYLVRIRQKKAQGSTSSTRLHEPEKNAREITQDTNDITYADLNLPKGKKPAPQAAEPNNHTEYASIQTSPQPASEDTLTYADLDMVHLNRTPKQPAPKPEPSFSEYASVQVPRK

[3] = target: T3, full-length hSIRPα on U2OS cells (Homo sapiens, UniProt P78324); assay: as above; details: one partner purified
T3 construct: signal-regulatory protein α (SIRPα), human, full-length, co-expressed with IRES-derived GFP; also called U2OS-hSIRPα; source: U2OS, stably expressing, on live cells
T3 sequence (P78324 31-504): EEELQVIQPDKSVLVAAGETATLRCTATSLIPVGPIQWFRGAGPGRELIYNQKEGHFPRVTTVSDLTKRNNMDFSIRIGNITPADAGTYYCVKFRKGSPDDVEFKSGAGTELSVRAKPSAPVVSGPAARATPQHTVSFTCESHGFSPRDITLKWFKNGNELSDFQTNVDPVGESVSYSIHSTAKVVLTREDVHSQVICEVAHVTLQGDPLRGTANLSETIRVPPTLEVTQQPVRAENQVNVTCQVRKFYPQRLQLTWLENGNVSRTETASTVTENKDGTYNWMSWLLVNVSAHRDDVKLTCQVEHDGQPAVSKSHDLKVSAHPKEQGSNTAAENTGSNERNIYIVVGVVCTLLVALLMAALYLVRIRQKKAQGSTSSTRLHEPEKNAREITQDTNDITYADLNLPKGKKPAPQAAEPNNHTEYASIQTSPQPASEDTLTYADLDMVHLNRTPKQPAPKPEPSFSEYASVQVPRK

[4] = target: T4, hSIRPβ1 displayed on U2OS cells (Homo sapiens, UniProt O00241); assay: as above; details: one partner purified
T4 construct: signal-regulatory protein β1 (SIRPβ1), human; source: U2OS, transiently expressing, on live cells
T4 sequence (O00241 30-398): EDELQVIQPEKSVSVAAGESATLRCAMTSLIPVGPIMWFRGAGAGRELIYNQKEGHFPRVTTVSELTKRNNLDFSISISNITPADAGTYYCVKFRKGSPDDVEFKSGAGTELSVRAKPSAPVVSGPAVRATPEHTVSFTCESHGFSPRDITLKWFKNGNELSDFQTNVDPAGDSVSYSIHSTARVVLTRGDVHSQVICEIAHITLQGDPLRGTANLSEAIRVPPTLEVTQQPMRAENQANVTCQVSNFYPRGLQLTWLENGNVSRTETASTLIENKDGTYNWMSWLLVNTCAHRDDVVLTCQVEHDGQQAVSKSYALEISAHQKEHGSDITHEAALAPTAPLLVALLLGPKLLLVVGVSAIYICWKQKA

[5] = target: T5, hSIRPα-V1 displayed on U2OS cells (Homo sapiens, allele V1, UniProt P78324); assay: as above; details: one partner purified
T5 construct: signal-regulatory protein α (SIRPα), human, allelic variant V1; also called hSIRPα variant V1; source: U2OS, transiently expressing, on live cells
T5 sequence (P78324 31-504): as the sequence (P78324 31-504) above

[6] = target: T6, murine SIRPα displayed on U2OS cells (Mus musculus, UniProt P97797); assay: as above; details: one partner purified
T6 construct: signal-regulatory protein α (SIRPα), mouse; also called mouse SIRPα; source: U2OS, transiently expressing, on live cells
T6 sequence (P97797 32-513): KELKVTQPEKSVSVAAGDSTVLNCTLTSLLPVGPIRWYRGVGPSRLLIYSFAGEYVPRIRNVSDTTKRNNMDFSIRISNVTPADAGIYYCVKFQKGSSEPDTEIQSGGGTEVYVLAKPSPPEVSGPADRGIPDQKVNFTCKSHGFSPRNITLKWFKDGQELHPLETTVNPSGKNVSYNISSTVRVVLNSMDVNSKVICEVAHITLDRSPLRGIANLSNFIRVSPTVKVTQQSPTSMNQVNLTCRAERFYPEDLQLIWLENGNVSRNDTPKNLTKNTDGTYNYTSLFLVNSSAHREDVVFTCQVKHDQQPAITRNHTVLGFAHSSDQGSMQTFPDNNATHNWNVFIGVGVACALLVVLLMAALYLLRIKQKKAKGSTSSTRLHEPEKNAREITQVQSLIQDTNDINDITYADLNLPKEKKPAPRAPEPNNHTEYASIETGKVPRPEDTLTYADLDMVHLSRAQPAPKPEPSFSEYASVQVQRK

[7] = target: T7, hSIRPγ displayed on U2OS cells (Homo sapiens, UniProt Q9P1W8); assay: as above; details: one partner purified
T7 construct: signal-regulatory protein γ (SIRPγ), human; also called hSIRPy; source: U2OS, transiently expressing, on live cells
T7 sequence (Q9P1W8 29-387): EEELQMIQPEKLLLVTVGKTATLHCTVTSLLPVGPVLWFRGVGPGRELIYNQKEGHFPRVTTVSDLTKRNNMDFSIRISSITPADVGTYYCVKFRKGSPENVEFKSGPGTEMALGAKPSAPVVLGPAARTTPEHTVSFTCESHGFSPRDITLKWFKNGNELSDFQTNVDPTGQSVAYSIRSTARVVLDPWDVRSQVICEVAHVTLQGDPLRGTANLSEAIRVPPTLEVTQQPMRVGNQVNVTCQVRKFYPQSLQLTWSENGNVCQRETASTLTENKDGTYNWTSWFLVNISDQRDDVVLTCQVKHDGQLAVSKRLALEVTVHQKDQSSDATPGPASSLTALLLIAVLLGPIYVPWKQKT

[8] = target: T8, biotinylated recombinant hSIRPα (extracellular portion) (Homo sapiens, UniProt P78324, biotin (Sulfo-NHS-LC-LC-Biotin)); assay: BLI; epitope binning: two consecutive association steps with different Nbs on recombinant hSIRPα; details: both partners purified
T8 construct: signal-regulatory protein α (SIRPα), human, recombinant extracellular portion; also called biotinylated hSIRPα; signal-regulatory protein α; source: bought: Acrobiosystems
T8 sequence (P78324 31-373): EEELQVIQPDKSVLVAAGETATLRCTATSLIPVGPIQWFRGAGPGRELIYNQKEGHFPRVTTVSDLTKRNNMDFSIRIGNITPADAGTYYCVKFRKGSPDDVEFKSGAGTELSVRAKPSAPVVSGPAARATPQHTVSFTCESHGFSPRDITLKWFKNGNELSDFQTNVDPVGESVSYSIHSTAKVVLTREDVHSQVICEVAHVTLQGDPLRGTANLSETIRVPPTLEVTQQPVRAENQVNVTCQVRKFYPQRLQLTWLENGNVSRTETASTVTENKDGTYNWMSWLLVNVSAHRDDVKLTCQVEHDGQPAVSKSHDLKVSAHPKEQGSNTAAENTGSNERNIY

[9] = target: T9, hSIRPα domain 2 displayed on U2OS cells (Homo sapiens, UniProt P78324); assay: immunostaining of cells or tissue; live-cell immunofluorescence on U2OS cells expressing the target; unlabeled Nbs (1 nM to 100 nM) with Cy5-labeled anti-VHH, 1 h at 37°C; details: one partner purified
T9 construct: signal-regulatory protein α (SIRPα), human, domain 2; also called hSIRPαD2; D2; source: U2OS, transiently expressing, on live cells
T9 sequence (P78324 whole entry, looked up, tested part not stated): as the sequence (P78324 whole entry, looked up, tested part not stated) above

[10] = target: T10, recombinant hSIRPα (human, UniProt P78324); assay: HDX-MS; hSIRPα with Nb S8, S33 or S36; methods not in the text shown; details: both partners purified
T10 construct: signal-regulatory protein α (SIRPα), human, recombinant extracellular portion; source: bought: Acrobiosystems
T10 sequence (P78324 31-373): as the sequence (P78324 31-373) above

[11] = target: T8, biotinylated recombinant hSIRPα …; assay: BLI; Octet RED96e; biotinylated hSIRPα (5 µg/mL) immobilised on streptavidin biosensors; Nbs 0.625 nM to 320 nM in Octet buffer (PBS, 0.1% BSA, 0.02% Tween-20); association 240 s, dissociation 720 s; 1:1 model, global fit; details: both partners purified

T1 sequence (P78324 whole entry, looked up, tested part not stated): as the sequence (P78324 whole entry, looked up, tested part not stated) above

binding result [1] | binding result [2] | binding result [3] | binding result [4] | binding result [5] | binding result [6] | binding result [7] | binding result [8] | binding result [9] | binding result [10] | binding result [11] | Binder
binds | no binding (tested: Nbs 1 nM to 100 nM) | binds | – | – | – | – | – | – | – | – | hSIRPα Nb S43 (VHH, selected against domain 1 of hSIRPα; source: E. coli XL-1, purified (IMAC, SEC); not shown: His tag (from the IMAC purification)) VHH: HVQLVESGGGLVQPGGSARLSCAASGFDLDYFAIGWFRQAPGKEREGVSCISTRSETTNYVDSVKGRFTISRDNAISTVYLQMNNLKPEDTAVYYCAADWADWTMTGCQMTWDDYNYWGQGAQVTVSS
binds | no binding (tested: Nbs 1 nM to 100 nM) | binds | binds | binds | no binding (tested: Nbs 1 nM to 100 nM) | no binding (tested: Nbs 1 nM to 100 nM) | binds | – | – | – | hSIRPα Nb S45 (VHH, selected against domain 1 of hSIRPα; source: E. coli XL-1, purified (IMAC, SEC); not shown: His tag (from the IMAC purification)) VHH: HVQLVESGGGLVQPGGSLRLSCAARGFSFRDSAMSWARQAPGKGLEWVGAIYSDGSTVYEKSVKGRFTISRDNAKNTMYLQMHSLKPEDSARYYCAPKGVVADEGDYSGQGTLVTVSS
binds | no binding (tested: Nbs 1 nM to 100 nM) | binds | binds | – | no binding (tested: Nbs 1 nM to 100 nM) | – | binds | – | – | – | hSIRPα Nb S41 (VHH, selected against domain 1 of hSIRPα; source: E. coli XL-1, purified (IMAC, SEC); not shown: His tag (from the IMAC purification)) VHH: HVQLVESGGGLVQPGGSLRLSCAASGETLDYYAIGYVRQAPGKEREGVSCISSRGDNTNYADSVKGRFTISRDNANNTVYLQMNSLKPEDTAVYYCVAIKDSWQNYYCSVGWVEYDVWGQGTQVTVSS
– | no binding (tested: Nbs 1 nM to 100 nM) | binds | binds | binds | no binding (tested: Nbs 1 nM to 100 nM) | – | binds | binds | binds | – | hSIRPα Nb S33 (VHH, selected against the entire extracellular portion of hSIRPα; source: E. coli XL-1, purified (IMAC, SEC); not shown: His tag (from the IMAC purification)) VHH: EVQLVESGGGLVQPGGSLRLSCTTSGFTLDYYSVGWFRQAPGKEREGVSCITASGSSTNYANSVKGRFTISRDKVKNTVYLQMSSLKPEDTAVYYCAAEPCTVVAGILQAPTSDFGSWGQGTQVTVSS
binds | no binding (tested: Nbs 1 nM to 100 nM) | binds | – | – | – | – | – | – | – | – | hSIRPα Nb S42 (VHH, selected against domain 1 of hSIRPα; source: E. coli XL-1, purified (IMAC, SEC); not shown: His tag (from the IMAC purification)) VHH: HVQLVESGGGLVQPGGSLRLSCAASGFIFSGYAMSWVRQAPGKGLEWVSDISSDGVRLYYADSVKGRFTISRDNAKNTVYLEMTSLKPDDTALYYCATSSDPQLGLDLWGKGTPVTVSS
binds | no binding (tested: Nbs 1 nM to 100 nM) | binds | binds | – | no binding (tested: Nbs 1 nM to 100 nM) | binds | binds | – | – | – | hSIRPα Nb S44 (VHH, selected against domain 1 of hSIRPα; source: E. coli XL-1, purified (IMAC, SEC); not shown: His tag (from the IMAC purification)) VHH: QVQLQESGGGLVQPGGSLRLACAASGFTFSSYDMSWVRQAPGKGLEWVSDIKSGGGRTYYADSVKGRFTISRDNAKNTVYLQMNSLKPEDTAVYYCGSLDNSGAYTGGGQGSQVTVSS
– | – | – | – | – | – | – | – | – | – | binds | hSIRPα-S36K>R Nb (VHH, as the VHH of m9 (S36); source: E. coli, purified) VHH: EVQLVESGGGLVQPGGSLRLSCAASGFTLDYYAIGWFRQVPGREREGVSCISSDGGGNTYYADSVRGRFTISRDNARNTVYLQMNSLRPEDSAVYSCAAGPTYYSGSYCRDPHSDYDYWGQGTQVTVSS
binds | no binding (tested: Nbs 1 nM to 100 nM) | binds | binds | – | no binding (tested: Nbs 1 nM to 100 nM) | binds | binds | – | – | – | hSIRPα Nb S12 (VHH, selected against the entire extracellular portion of hSIRPα; source: E. coli XL-1, purified (IMAC, SEC); not shown: His tag (from the IMAC purification)) VHH: QVQLVESGGGLVQPGGSLRLSCLVSGFSSSYYAIGWFRQAPGKEREGVSCITRSGDTTNYADSVKGRFTISRDDARNTVYLQMNSLKTEDTAVYSCALWAWAGSGRLRCTASEYGHWGQGTQVTVSS
– | binds | binds | binds | binds | no binding (tested: Nbs 1 nM to 100 nM) | – | – | – | – | – | hSIRPα Nb S7 (VHH, selected against the entire extracellular portion of hSIRPα; source: E. coli XL-1, purified (IMAC, SEC); not shown: His tag (from the IMAC purification)) VHH: HVQLVESGGGLVQVGDSLRLSCAPSGRTFRAYAMAWFRQAPGKEREFVAAIRWIGGTPSYKDSVKGRFTISRDNARNTFYLQMNSLEPQDTGVYYCAAEETQKGSGLGHDGRHYDYWGQGTPVTVSS
– | no binding (tested: Nbs 1 nM to 100 nM) | binds | binds | binds | no binding (tested: Nbs 1 nM to 100 nM) | binds | binds | binds | binds | – | hSIRPα Nb S8 (VHH, selected against the entire extracellular portion of hSIRPα; source: E. coli XL-1, purified (IMAC, SEC); not shown: His tag (from the IMAC purification)) VHH: QVQLVESGGGLVQPGGSLRLSCADSEFRLDEYATGWFRQAPGKEREGVACISRSGSNTKYTDSVKGRFTISRDNAKKTVYLQMNSLKPEDTAVYYCAADLTSHYLSCSSYTDYNSWGQGTQVTVSS
– | no binding (tested: Nbs 1 nM to 100 nM) | binds | – | – | – | – | – | binds | – | – | hSIRPα Nb S21 (VHH, selected against the entire extracellular portion of hSIRPα; source: E. coli XL-1, purified (IMAC, SEC); not shown: His tag (from the IMAC purification)) VHH: DVQLVESGGGLVQPGGSLTLSCAASGFTSGTYALAYFRQAPGKEREGVSCISNDGGSRNYADSVKGRFTISRDNAKNTMYLQMNSLKPEDTAVYYCAAGPWYYCSDFARRPDGMDYWGKGTPVTVSS
binds | no binding (tested: Nbs 1 nM to 100 nM) | binds | – | – | – | – | – | binds | – | – | hSIRPα Nb S14 (VHH, selected against the entire extracellular portion of hSIRPα; source: E. coli XL-1, purified (IMAC, SEC); not shown: His tag (from the IMAC purification)) VHH: EVQLVESGGGLVQPGGSLRLSCAASGFTANSYRMTWVRQAPGKGLEWVADIGTGNEWKYYPDSVKGRFTISRDAAKNTVYLQMNSLKPEDTAVYYCAKNGAVWYGEDGLDYWGKGTLVTVSS
– | no binding (tested: Nbs 1 nM to 100 nM) | binds | – | – | – | – | – | binds | – | – | hSIRPα Nb S29 (VHH, selected against the entire extracellular portion of hSIRPα; source: E. coli XL-1, purified (IMAC, SEC); not shown: His tag (from the IMAC purification)) VHH: EVQLVESGGGLVQPGGSLRLSCAASGFTSETYAIGWFRQAPGKEREGVSCISNDGGSRNYADSVKGRFTISRDNAKNTSYLQMNSLKPEDTAVYYCAAGKYYYCLGYVSDGMDYWGKGTPVTVSS
binds | no binding (tested: Nbs 1 nM to 100 nM) | binds | – | – | – | – | – | binds | – | – | hSIRPα Nb S17 (VHH, selected against the entire extracellular portion of hSIRPα; source: E. coli XL-1, purified (IMAC, SEC); not shown: His tag (from the IMAC purification)) VHH: QVQLVESGGGLVQPGGSLRLSCAASGFTLDSYVIGWFRQAPGKEREGVSCISQRIGSTDYADSVKGRFTISKDNAKNTAYLQMNALKPEDTAVYYCAAGRLYYSGTYCPQGGMSYWGKGSPVTVSS
